From US20080227698A1, “OLIGOPEPTIDES FOR TREATMENT OF OSTEOPOROSIS AND OTHER BONE DISEASES AND METHODS THEREOF” (Washington University, priority 2005, published 2008)
Blank lines part the entries; values can stand above or below the molecule they belong to.

What was measured:
LRP5 = LRP5 (Homo sapiens, UniProt O75197); experiment: ^125I-DKK1 binding to LRP5, competition by Mesd or oligopeptide (FIG. 10B)
Method: (§1) In order to investigate the binding of Mesd polypeptide and an Mesd oligopeptide to either LRP5 or LRP6, binding assays were performed using ^125I-Mesd or ^125I-DKK1 (FIG. 10).

ST-2 cells = experiment: Alkaline phosphatase activity in ST-2 cells infected with DKK1 retrovirus; type: cell-based; settings: increasing amounts of oligopeptide; non-transfected cells approximately 0.14 units, DKK1-infected cells about 0.02 units
Source text: Osteoblasts are cells which build bone. One marker for osteoblast activity is the cell surface enzyme alkaline phosphatase (AP). ST-2 cells are an osteoblast-derived cell line which provides an in vitro model system for studying osteoblast activity. […] Treatment of the transfected cells with increasing amounts of a Mesd oligopeptide having sequence

LRP6 = LRP6 (Homo sapiens, UniProt O75581); experiment: ^125I-Mesd binding to LRP6, competition by Mesd or oligopeptide (FIG. 10C); parameters: plasmid pCS-Myc-hLRP6 containing the full-length human LRP6 cDNA; HA; expressed in transfected cells; host or cells: human HT1080 cells, stably transduced (pLNCX2 retroviral vector); settings: compared with LRP5 (up to about 10-fold)
LRP6, sequence (O75581 20-1613): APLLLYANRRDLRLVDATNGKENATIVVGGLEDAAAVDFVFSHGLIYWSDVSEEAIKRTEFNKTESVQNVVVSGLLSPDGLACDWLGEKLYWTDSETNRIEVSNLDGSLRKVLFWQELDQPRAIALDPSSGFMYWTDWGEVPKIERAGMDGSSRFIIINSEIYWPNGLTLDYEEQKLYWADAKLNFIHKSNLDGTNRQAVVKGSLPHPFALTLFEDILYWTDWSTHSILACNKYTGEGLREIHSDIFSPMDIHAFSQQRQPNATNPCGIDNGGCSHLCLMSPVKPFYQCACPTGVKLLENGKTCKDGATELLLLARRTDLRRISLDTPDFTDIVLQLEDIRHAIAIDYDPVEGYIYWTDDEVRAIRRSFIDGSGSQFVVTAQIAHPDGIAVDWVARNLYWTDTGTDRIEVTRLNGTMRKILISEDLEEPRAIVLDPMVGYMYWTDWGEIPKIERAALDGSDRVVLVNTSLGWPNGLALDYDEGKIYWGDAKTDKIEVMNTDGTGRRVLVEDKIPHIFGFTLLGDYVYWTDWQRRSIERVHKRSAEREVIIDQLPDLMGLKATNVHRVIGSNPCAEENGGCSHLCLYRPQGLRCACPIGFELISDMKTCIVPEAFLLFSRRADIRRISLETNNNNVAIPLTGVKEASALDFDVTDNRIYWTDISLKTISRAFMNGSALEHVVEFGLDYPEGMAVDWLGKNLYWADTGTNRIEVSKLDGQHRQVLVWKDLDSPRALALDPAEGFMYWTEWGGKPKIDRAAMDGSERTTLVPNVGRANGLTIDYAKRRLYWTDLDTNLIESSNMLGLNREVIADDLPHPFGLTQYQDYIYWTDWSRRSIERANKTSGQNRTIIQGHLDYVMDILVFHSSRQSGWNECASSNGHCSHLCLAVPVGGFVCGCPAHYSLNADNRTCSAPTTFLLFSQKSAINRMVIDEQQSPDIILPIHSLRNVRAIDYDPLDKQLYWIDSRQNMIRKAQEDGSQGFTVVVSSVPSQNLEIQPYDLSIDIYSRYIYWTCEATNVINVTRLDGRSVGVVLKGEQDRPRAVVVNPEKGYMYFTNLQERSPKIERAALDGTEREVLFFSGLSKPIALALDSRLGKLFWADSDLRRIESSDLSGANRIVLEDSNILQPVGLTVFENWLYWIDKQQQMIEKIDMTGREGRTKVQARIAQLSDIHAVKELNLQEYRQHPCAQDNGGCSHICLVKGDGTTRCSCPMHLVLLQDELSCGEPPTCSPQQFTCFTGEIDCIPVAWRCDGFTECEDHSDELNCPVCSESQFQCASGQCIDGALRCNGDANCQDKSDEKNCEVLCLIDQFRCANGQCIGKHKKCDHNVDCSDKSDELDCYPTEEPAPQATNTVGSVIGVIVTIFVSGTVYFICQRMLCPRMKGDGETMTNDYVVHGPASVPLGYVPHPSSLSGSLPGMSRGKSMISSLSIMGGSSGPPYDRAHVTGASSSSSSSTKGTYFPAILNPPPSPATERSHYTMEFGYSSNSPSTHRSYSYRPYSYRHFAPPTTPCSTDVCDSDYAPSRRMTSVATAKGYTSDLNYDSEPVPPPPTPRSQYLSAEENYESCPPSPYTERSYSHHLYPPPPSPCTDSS
Method: as §1

[1] = biological target: T1, LRP6 on LRP6-transduced HT1080 cells (HA-tagged) (UniProt O75581 20-1613, limits assumed); experiment: competition against 125I-DKK1 for LRP6 (FIG. 10D)
T1 construct: whole, on cells; also called mature LRP6; cell surface LRP6
T1 sequence (O75581 20-1613 limits assumed): as the sequence (O75581 20-1613) above

[2] = biological target: T2, human Myc-tagged LRP5 on transiently transfected HEK293 cells (human, UniProt O75197 32-1615); experiment: competition against 125I-Mesd for LRP5 (FIG. 10A)
T2 construct: whole, on cells; also called mature LRP5; pcDNA3.1C-Myc-hLRP5
T2 sequence (O75197 32-1615): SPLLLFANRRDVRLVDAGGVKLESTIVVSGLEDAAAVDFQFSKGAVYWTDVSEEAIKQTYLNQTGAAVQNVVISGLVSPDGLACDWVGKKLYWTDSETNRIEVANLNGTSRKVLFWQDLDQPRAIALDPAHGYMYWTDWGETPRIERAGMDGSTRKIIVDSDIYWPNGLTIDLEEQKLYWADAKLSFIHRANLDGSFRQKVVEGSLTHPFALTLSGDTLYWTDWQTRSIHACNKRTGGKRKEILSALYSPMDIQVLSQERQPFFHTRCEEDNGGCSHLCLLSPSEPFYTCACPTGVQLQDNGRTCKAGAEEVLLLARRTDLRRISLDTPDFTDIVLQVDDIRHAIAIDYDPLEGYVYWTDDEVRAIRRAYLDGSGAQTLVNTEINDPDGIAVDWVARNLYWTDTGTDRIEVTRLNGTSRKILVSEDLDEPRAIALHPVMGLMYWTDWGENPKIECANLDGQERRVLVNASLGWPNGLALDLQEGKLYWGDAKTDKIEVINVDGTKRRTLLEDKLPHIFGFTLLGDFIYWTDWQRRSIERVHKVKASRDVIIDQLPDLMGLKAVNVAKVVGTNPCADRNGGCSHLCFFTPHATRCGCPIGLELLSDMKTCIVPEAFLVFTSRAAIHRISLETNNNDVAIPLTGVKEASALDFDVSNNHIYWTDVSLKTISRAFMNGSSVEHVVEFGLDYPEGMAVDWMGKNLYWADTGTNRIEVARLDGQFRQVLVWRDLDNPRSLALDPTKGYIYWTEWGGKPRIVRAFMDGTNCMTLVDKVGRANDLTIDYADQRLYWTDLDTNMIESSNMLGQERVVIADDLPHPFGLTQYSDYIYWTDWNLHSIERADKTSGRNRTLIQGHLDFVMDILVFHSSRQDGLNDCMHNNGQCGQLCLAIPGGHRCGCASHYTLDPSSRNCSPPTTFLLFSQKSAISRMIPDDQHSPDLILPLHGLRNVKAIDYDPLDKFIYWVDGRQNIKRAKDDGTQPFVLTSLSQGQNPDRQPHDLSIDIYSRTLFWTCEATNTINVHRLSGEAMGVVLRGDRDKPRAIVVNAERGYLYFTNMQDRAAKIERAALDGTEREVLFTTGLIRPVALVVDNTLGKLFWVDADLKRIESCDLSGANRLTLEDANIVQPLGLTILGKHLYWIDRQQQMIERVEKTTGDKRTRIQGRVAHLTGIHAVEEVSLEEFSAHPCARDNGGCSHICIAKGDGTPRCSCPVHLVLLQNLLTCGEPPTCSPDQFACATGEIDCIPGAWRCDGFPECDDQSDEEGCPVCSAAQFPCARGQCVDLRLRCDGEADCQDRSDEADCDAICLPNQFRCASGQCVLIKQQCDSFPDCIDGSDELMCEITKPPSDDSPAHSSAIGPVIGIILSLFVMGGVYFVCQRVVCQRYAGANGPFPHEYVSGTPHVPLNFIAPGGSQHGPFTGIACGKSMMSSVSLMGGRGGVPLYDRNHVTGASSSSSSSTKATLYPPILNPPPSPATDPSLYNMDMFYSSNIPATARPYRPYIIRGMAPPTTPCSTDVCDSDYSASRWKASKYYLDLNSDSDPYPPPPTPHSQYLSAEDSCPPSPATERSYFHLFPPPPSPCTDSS

[3] = biological target: T1, LRP6 on LRP6-transduced HT1080 cells …; experiment: Scatchard analysis of 125I-Mesd saturation binding to LRP6-transduced HT1080 cells, 3 h at 4 C
Source text: (C) Scatchard plots of data in B. All values are the average of triple determinations with the s.d. indicated by error bars.

[4] = biological target: T3, human VLDLR on stably transfected LRP-null CHO cells (human, UniProt P98155 28-873); experiment: 125I-Mesd binding to stably transfected LRP-null CHO cells, 4 h at 4 C, with or without 500 nM Mesd
T3 construct: whole, on cells

[5] = biological target: T4, human apoER2 on stably transfected LRP-null CHO cells (human, UniProt Q14114 33-963); experiment: as above
T4 construct: whole, on cells
T4 sequence (looked up): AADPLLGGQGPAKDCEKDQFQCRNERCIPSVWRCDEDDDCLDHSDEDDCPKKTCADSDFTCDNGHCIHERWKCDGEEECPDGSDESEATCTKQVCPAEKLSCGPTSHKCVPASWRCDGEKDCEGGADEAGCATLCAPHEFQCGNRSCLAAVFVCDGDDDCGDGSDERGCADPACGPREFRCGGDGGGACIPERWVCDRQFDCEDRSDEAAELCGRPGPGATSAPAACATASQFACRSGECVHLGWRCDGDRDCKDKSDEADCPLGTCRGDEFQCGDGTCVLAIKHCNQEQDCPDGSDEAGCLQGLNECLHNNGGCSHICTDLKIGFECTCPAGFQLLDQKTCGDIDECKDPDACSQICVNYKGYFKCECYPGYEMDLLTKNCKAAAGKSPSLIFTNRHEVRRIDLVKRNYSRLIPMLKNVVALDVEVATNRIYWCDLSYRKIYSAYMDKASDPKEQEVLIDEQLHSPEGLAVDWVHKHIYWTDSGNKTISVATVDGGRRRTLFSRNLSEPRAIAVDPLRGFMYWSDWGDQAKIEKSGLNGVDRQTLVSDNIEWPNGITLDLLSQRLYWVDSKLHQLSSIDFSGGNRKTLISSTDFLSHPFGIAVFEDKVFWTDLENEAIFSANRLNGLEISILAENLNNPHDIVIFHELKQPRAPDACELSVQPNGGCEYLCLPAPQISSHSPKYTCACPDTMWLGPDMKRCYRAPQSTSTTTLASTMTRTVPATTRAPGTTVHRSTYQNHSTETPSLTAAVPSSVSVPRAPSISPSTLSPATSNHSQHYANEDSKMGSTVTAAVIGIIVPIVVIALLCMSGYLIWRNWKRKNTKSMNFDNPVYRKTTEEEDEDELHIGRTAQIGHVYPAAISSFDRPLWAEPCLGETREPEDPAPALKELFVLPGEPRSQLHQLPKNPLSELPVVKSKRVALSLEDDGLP

[6] = biological target: T1, LRP6 on LRP6-transduced HT1080 cells …; experiment: binding of truncated Mesd mutants to cell surface LRP6 (FIG. 3B)

LRP5, sequence (O75197 32-1615): as the sequence (O75197 32-1615) above

Reduction in binding of ^125I-DKK1 to LRP5 (LRP5): small but significant reduction
Reduction of binding of ^125I-Mesd to LRP6 (LRP6): even greater reduction
Molecule: KGGGSKEKNKTKPEKAKKKEGDPKPRASKEDNRAGSR [SEQ ID NO: 20]
Alkaline phosphatase (AP) activity (ST-2 cells): increasing levels of AP activity

fold reduction of ^125I-DKK1 binding [1]: > 2 fold
fold reduction of ^125I-Mesd binding [2]: ~10 fold
Kd [3]: ~3.3 nM
binding result [4]: no binding (tested: 5 nM 125I-Mesd)
binding result [5]: no binding (tested: 5 nM 125I-Mesd)
B1: recombinant mouse Mesd protein (wild type) (other, not shown: small tags and cut ends)
chain: ADTPGEATPPPRKKKDIRDYNDADMARLLEQWEKDDDIEEGDLPEHKRPSAPIDFSKLDPGKPESILKMTKKGKTLMMFVTVSGNPTEKETEEITSLWQGSLFNANYDVQRFIVGSDRAIFMLRDGSYAWEIKDFLVSQDRCAEVTLEGQMYPGKGGGSKEKNKTKPEKAKKKEGDRKPRASKEDNRAGSRREDL
modifications: 125I-iodinated (IODO-GEN) when used as radioligand
notes: Made in E. coli from full-length mouse Mesd cDNA; also called wild type Mesd

binding result [6]: no binding
B2: Mesd(12-155) (other, not shown: small tags and cut ends)
chain: RKKKDIRDYNDADMARLLEQWEKDDDIEEGDLPEHKRPSAPIDFSKLDPGKPESILKMTKKGKTLMMFVTVSGNPTEKETEEITSLWQGSLFNANYDVQRFIVGSDRAIFMLRDGSYAWEIKDFLVSQDRCAEVTLEGQMYPGK
modifications: 125I-iodinated when used as radioligand
notes: also called truncated Mesd mutant lacking both the N-terminal and C-terminal regions
